In patent publication US20240343771A1:

Legend:
[1] = molecular target: IL-12 receptor (human IL-12Rb1 and IL-12Rb2 on IL-12 bioassay cells) (human) (UniProt P42701)
[2] = molecular target: IL-12 receptor (human IL-12Rb1 and IL-12Rb2 on IL-12 bioassay cells) (human) (UniProt P42701); remark: listed apart in the source
[3] = molecular target: IL-12 receptor (human IL-12Rb1 and IL-12Rb2 on IL-12 bioassay cells) (human) (UniProt P42701); remark: listed apart in the source
[4] = molecular target: IL-12 receptor (human IL-12Rb1 and IL-12Rb2 on IL-12 bioassay cells) (human) (UniProt P42701); remark: listed apart in the source

IL-12 receptor (human IL-12Rb1 and IL-12Rb2 on IL-12 bioassay cells) (human), sequence (Q99665 24-862, chain 2 of 2, other chains not shown): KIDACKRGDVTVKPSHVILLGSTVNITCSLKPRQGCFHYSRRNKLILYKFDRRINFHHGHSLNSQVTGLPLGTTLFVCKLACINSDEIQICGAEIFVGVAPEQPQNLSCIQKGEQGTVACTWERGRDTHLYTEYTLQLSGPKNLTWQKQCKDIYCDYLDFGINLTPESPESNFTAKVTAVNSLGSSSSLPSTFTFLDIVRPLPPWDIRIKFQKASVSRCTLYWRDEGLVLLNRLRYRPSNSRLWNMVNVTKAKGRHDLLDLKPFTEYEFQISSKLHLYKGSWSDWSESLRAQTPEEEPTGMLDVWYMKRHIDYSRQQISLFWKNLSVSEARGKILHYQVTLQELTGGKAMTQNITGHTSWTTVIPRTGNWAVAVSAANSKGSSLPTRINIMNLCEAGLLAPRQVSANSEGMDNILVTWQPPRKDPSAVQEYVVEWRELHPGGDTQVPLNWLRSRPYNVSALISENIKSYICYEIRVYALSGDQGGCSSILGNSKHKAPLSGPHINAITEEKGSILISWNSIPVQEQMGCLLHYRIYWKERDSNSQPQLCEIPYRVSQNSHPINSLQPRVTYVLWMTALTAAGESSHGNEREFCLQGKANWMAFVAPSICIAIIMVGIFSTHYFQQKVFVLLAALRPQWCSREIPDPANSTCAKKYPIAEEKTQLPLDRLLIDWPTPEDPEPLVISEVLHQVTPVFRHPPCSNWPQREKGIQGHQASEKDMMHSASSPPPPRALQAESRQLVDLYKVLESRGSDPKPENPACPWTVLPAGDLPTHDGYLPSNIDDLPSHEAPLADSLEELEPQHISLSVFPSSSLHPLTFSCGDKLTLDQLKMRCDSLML
hIL12 + MTSP1, sequence (P29459 23-219): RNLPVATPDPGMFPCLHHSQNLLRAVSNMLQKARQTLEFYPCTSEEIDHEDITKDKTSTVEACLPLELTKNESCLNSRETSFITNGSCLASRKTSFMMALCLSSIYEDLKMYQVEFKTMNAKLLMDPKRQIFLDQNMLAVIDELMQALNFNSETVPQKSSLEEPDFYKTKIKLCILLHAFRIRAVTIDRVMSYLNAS
hIL12 + MTSP1, sequence (P29460 23-328): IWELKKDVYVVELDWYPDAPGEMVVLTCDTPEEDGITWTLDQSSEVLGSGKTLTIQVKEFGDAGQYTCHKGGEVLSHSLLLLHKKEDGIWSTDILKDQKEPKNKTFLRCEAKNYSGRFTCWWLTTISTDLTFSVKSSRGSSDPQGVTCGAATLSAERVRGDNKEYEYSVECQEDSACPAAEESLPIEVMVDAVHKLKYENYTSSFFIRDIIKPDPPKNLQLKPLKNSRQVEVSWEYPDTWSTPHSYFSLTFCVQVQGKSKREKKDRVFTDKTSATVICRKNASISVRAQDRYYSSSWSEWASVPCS

Row | EC50 (read off the curve) (luciferase activity, AU; the assay is not described for this figure) [1] [nM] | EC50 (read off the curve) (luciferase reporter in IL-12 bioassay cells expressing human IL-12Rb1, IL-12Rb2 and STAT4) [all three graphs] [2] [nM] | EC50 (read off the curve) (luciferase reporter in IL-12 bioassay cells expressing human IL-12Rb1, IL-12Rb2 and STAT4) [3] [nM] | EC50 (read off the curve) (luciferase reporter in IL-12 bioassay cells expressing human IL-12Rb1, IL-12Rb2 and STAT4) [left graph] [4] [nM] | Substance
1 | 0.3 |  |  |  | hIL12 + MTSP1 (from UniProt P29459;P29460) (ligand)
2 |  | 0.2 | 0.2 |  | hIL12_His tag + MTSP1 (ligand)
3 |  | 0.2 | 0.2 | 0.1 | hIL12_His tag (ligand)
